{"source": "patent US20190309074A1", "about": "“DEGLYCOSYLATED ANTIBODY SPECIFICALLY BINDING TO CLEC14A AND USES THEREOF” (WOORI TECHNOLOGIES CORPORATION, priority 2016, published 2019)", "molecules": {"B1": {"name": "deglyco C1 IgG: deglycosylated clone 1 IgG; light chain CDR1 TGSSSNIGRCGVT (SEQ ID NO: 2), N32R/N33C/S34G (antibody, V domains shown)", "VH": "EVQLVESGGGLVQPGGSLRLSCAVSGFTFSGYDMSWIRQAPGKGLEWVAGIYPDGGNTYYADSVKGRFTISRDDSKNTFYLQMNSLRAEDTAVYYCARGATWWVLGPFDYWGQGTLVTVSS", "VL": "DIQLTQSPSSLSASVGDRVTITCTGSSSNIGRCGVTWYQQKPGKAPKLLIYADSHRPSGVPSRFSGSGSGTDFTLTISSLQPEDFATYYCGAWDDSLSGYVFGQGTKVEIKR"}}, "key": {"[1]": {"tested_on": "HCT116/Beva cells", "test": "Matrigel plug angiogenesis assay, CD31 microvessel density", "type": "in vivo", "details": "single dose of 5 mg/kg, 14 days", "method": "(§1) Matrigel plug angiogenesis assay was conducted in the presence of deglyco C1 IgG or bevacizumab with a single dose of 5 mg/kg or the absence thereof using HCT116 human colorectal cancer cells and bevacizumab-applied HCT116 human colorectal cancer cells (HCT116 and HCT116/Beva). 14 days later, the Matrigel plug was removed, and immunohistochemistry was conducted on CD31 and microvascular markers. A microvessel density was measured by quantifying CD31 positive per field in an image each obtained by a confocal microscope."}, "[2]": {"tested_on": "HCT116 human colorectal cancer cells", "test": "Matrigel plug angiogenesis assay, CD31 microvessel density", "type": "in vivo", "details": "single dose of 5 mg/kg, 14 days", "method": "as §1"}, "[3]": {"tested_on": "HUVECs", "test": "HUVEC viability (cell counting Kit-8)", "type": "cell-based, human", "details": "2 days", "method": "In order to evaluate effects of deglyco C1 IgG on toxicity of endothelial cells, after treatment with deglyco C1 IgG, viability of HUVECs was measured. Viability was measured in accordance with the manufacturer's manual through cell counting Kit-8 (#CK04-13, Dojindo Laboratories, Kumamoto, Japan)."}, "[4]": {"tested_on": "U87 human glioma", "test": "U87 tumor growth", "type": "in vivo"}, "[5]": {"tested_on": "HUVEC activity", "test": "endothelial cell activation (VCAM-1, ICAM-1 expression)", "type": "cell-based, human", "method": "In addition, the morphology of HUVEC was evaluated in the presence or absence of deglyco C1 IgG using immunocytochemistry. […] In order to evaluate effects of deglyco C1 IgG on the activity of endothelial cells, which is an initial inflammatory response to a harmful stimulus, HUVECs were treated with deglyco C1 IgG, and expression of an endothelial cell activity marker including VCAM-1 (vascular cell adhesion molecule-1) and ICAM-1 (intercellular cell adhesion molecule-1) was measured to monitor HUVEC activity. Human tumor necrosis factor-alpha (hTNFα) was used as a positive control group for endothelial cell activity."}, "[6]": {"tested_on": "HUVEC tube formation", "test": "HUVEC tube formation assay", "type": "cell-based, human", "details": "branches as % of MOCK", "method": "Genetic mutation introduced during antibody engineering induces unpredicted defects, resulting in deterioration in antibody functions. In order to isolate antibodies for suppressing clec14a-mediated angiogenesis, tube formation and endothelial cell migration assay using human umbilical vein endothelial cells (HUVECs) were conducted in the presence or absence of clone 1 IgG and deglyco C1-C4 IgGs. Among the four types of deglyco IgGs, deglyco C1 IgG was selected as a candidate antibody. […] In addition, it can be seen that deglyco C1 IgG includes desired alterations (N32R/N33C/S34G) in the amino acid sequence in light chain CDR1.\nIn order to compare in vitro angiogenesis suppression effect between deglyco C1 IgG and bevacizumab, tube formation and migration assay were conducted in the presence or absence of parent antibody IgG, deglyco C1 IgG or bevacizumab as a positive control group.\nIn order to investigate in vitro effects of deglyco C1 IgG on VEGF-dependent angiogenesis, HUVECs were treated with VEGF in the presence or absence of deglyco C1 IgG, and then HUVEC tube formation assay was conducted. 150 μl of Matrigel was added to a 48-well plate and incubated at 37° C. for 30 minutes. HUVEC (10^5) cultured in EGM-2 were collected, seeded on the Matrigel-coated plate and incubated at 37° C. for 18 hours in the presence or absence of clone 1 IgG, parent antibody IgG, deglycosylated clec14a-CTLD IgG or bevacizumab. HUVECs cultured in VEGF-containing EBM (endothelial cell basal medium) were seeded to the Matrigel-coated plate and incubated at 37° C. for 18 hours in the presence or absence of deglyco C1 IgG (20 μg ml^−1)."}, "[7]": {"test": "in vivo toxicity in normal mouse", "details": "intravenous, twice a week", "description": "In order to investigate in vivo toxicity of deglyco C1 IgG, deglyco C1 IgG was intravenously injected into a normal mouse twice a week, and hepatic and renal functions, body weight, and apoptosis conditions of hepatic and renal tissues between control groups and experimental groups were then compared. The hepatic function was investigated by measuring serum concentrations of glutamic-oxaloacetic transaminase (GOT), glutamic pyruvic transaminase (GPT), and total bilirubin (TBIL), and the renal function was investigated by measuring the concentrations of blood urea nitrogen (BUN) and creatinine (CRE). Apoptosis was measured by TUNEL staining."}, "[8]": {"tested_on": "VEGF-dependent blood vessel growth in rat aorta", "test": "ex vivo rat aortic ring assay", "details": "cultured in combination with VEGF", "method": "In order to further investigate effects of deglyco C1 IgG on VEGF-dependent angiogenesis, ex vivo rat aortic ring assay was conducted in the presence or absence of deglyco C1 IgG and bevacizumab. Blood vessels were almost not grown in the rat aorta in endothelial basal medium (EBM), whereas most blood vessels were grown in the rat aorta under VEGF expression conditions."}, "[9]": {"tested_on": "HEK293F cells transfected with wild-type clec14a", "test": "clec14a-mediated cell-cell contact (cell aggregate) assay", "type": "cell-based, human", "description": "In order to identify the mechanism by which deglyco C1 IgG acts on angiogenesis, the number of cell aggregates formed from HEK293F cells transfected with wild-type clec14a and cultured in the presence or absence of parent antibody IgG or deglyco C1 IgG was monitored to conduct functional assay on clec14a-mediated cell-cell contacts.\nThe parent antibody IgG was used as a positive control group to specifically block clec14a-mediated cell-cell contacts."}, "[10]": {"tested_on": "HUVECs", "test": "flow cytometry binding to endothelial cells", "type": "cell-based, human", "method": "In order to identify whether or not deglyco C1 IgG binds to human endothelial cells, flow cytometry was conducted with HUVECs. […] In addition, in order to measure binding affinity of C1 IgG to hclec14a-ECD (extracellular domain of human clec14a), binding affinity of antibody-antigen binding was measured in real time. It can be seen that deglyco C1 IgG has a KD constant (equilibrium dissociation constant) of 6 nM, which is similar to that of parent antibody IgG (FIG. 3C)."}}, "data": [{"molecule": "B1", "values": [{"measurement": "microvessel formation (CD31 positive per field), HCT116/Beva", "setting": "[1]", "result": "significantly suppressed"}, {"measurement": "microvessel formation (CD31 positive per field), HCT116", "setting": "[2]", "result": "significantly reduced microvessel formation ability"}, {"measurement": "viability of HUVECs", "setting": "[3]", "result": "did not exhibit cytotoxic effects"}, {"measurement": "body weight", "setting": "[4]; U87 tumor model", "result": "no impact on body weight"}, {"measurement": "tumor size of U87 cells", "setting": "[4]; measured weekly for one month", "result": "significantly reduces the tumor sizes"}, {"measurement": "HUVEC activity (VCAM-1, ICAM-1 expression)", "setting": "[5]", "result": "almost no impact"}, {"measurement": "inhibitory activity against HUVEC tube formation", "setting": "[6]", "result": "most excellent inhibitory activity"}, {"measurement": "inhibitory activity against HUVEC tube formation", "setting": "[6]; listed as Deglyco C1 IgG", "result": "significantly suppressed"}, {"measurement": "apoptosis of hepatic and renal tissues (TUNEL)", "setting": "[7]", "result": "apoptosis conditions were observed"}, {"measurement": "body weight", "setting": "[7]", "result": "no significant change in body weight"}, {"measurement": "hepatic and renal functions (GOT, GPT, TBIL, BUN, CRE)", "setting": "[7]", "result": "no significant change"}, {"measurement": "number of blood vessels grown in the rat aorta", "setting": "[8]", "result": "reduced the number of blood vessels grown in the rat aorta"}, {"measurement": "inhibition of clec14a-mediated cell-cell contacts (cell aggregates)", "setting": "[9]", "result": "inhibitory efficacy"}, {"measurement": "binding to surfaces of HUVECs", "setting": "[10]", "result": "specifically bound to the surfaces of HUVECs"}]}]}
